From patent US20220064331A1 (Genentech, published 2022)

B1: 14C10 (antibody, V domains shown)
VH: QVTLKESGPGILQPSQTLSLTCSFSGFSLSTSAMGIGWIRQPSGKGLEWLAHIWWDDDKRYNPALKSRLTISKDTSRNQVFLKIASVDTADTATYFCARIDGIYDGSFYAMDYWGQGTSVTVSS
VL: DIVLTQSPASLAVSLGQRATISCRASESVDSYGNSFMHWYQQKPGQPPKLLIYRASNLESGIPARFSGSGSRTDFTLTINPVEADDVANYYCQQSNEDYTFGGGTKLEIK
notes: murine hybridoma-derived anti-KLB antibody; also called KLBmAb3
B2: 6C1 (antibody, V domains shown)
VH: QVQLQQSGDELMKPGASVKISCKVTGNTFSSYWIEWVKQRPGHGLEWIGEILPGSDSTKYVEKFKVKATFTADTSSNTAYMQLSSLTSEDSAVYYCARGGYHYPGWLVYWGQGTLVTVSA
VL: DIVMTQSQKFMSTSVGDRVSVTCKASQNVDSYVAWYQQKAGQSPKPLIYSASYRFSGVPDRFTGSGSGTEFTLTISNVQSEDLAEYFCQQYNISPYTFGGGTKLEIK
notes: murine hybridoma-derived anti-KLB antibody; also called KLBmAb4
B3: 11D4 (antibody, V domains shown)
VH: QVQVKESGPGLVAPSQSLSITCTVSGFSLTNYGVSWIRQPPGKGLEWLGVIWGDGSINYHSALISRLTITKDNSKSQVFLKLNSLEADDTATYYCAKTHDWFDYWGQGTLVTVSA
VL: DIQMTQTPSSLSASLGDRVTINCRASQDISNYFNWYQQKPNGTIKLLIYYTSRLQSGVPSRFSGSGSGTDYSLTISNLEQEDKATYFCHQVRTLPWTFGGGTKLEIK
notes: murine hybridoma-derived anti-KLB antibody; also called KLBmAb5
B4: 14E6 (antibody, V domains shown)
VH: EVPLQQSGPELVKPGATVKISCKPSGDTFTEYTMNWVRQSHGKSLEWIGGINPNNGETSYNQKFKGKATLTVDKSSSTAFMDLRILTSEDSAVYFCARKTTNYWGQGTTLIVSS
VL: DIQMTQSPSSLSASLGERVSLTCRASQEISGYLSWLQQKPDGTIKRLIYAASTLDSGVPRRFSGSRSGSDYSLTISSLESEDFADYYCLQYGSYPWTFGGGTKLELK
notes: murine hybridoma-derived anti-KLB antibody
B5: 11F1 (antibody, V domains shown)
VH: EVQLVESGGGLVKPGGSLKLSCAPSGFTFSSYGISWVRQTPEKRLEWVATVSSGGRYTYYPDSVKGRFTISRDNAENTLYLQMSSLRSEDTAMYYCTRGGDGYALDYWGQGTSVTVSS
VL: DIQMTQTTSSLSASLGDRVTIICSASQVISNYLNWYQQKPDGTVKLLIYFTSSLRSGVPSRFSGSGSGTDYSLTISNLEPEDVATYFCQQYSKLPWTFGGGTKLELK
notes: as for B4
B6: 46C3 (antibody, V domains shown)
VH: EVQLQQSGAELVKPGASVKLSCTASDFNIIDTYIHWVKQRPEQGLEWIGRIDPANGNTKYDPKFQDKAALTSDTDSNTAYLLFNSLTSEDTAVYYCARGTSYSWFAYWGQGTLVSVSA
VL: AVLMTQTPLSLPVSLGDQASISCRSSQNIVHSDGNTYLEWYLQKPGQSPKLLIYKVSNRFSGVPDRFSGSGSGRDFTLKISRVEAGDLGVYYCFQGSHVLTFGAGTRLELK
notes: as for B4

Assays:
Test in all cases: FACS on transfected HEK293T cells
[1] = target: T1, cynomolgus monkey KLB (+N-ter FLAG) (cynomolgus monkey, UniProt Q86Z14 53-991 (human entry))
T1 construct: expressed from KLB cDNA on HEK293T cells and read by FACS; also called Cyno KLB
T1 chain: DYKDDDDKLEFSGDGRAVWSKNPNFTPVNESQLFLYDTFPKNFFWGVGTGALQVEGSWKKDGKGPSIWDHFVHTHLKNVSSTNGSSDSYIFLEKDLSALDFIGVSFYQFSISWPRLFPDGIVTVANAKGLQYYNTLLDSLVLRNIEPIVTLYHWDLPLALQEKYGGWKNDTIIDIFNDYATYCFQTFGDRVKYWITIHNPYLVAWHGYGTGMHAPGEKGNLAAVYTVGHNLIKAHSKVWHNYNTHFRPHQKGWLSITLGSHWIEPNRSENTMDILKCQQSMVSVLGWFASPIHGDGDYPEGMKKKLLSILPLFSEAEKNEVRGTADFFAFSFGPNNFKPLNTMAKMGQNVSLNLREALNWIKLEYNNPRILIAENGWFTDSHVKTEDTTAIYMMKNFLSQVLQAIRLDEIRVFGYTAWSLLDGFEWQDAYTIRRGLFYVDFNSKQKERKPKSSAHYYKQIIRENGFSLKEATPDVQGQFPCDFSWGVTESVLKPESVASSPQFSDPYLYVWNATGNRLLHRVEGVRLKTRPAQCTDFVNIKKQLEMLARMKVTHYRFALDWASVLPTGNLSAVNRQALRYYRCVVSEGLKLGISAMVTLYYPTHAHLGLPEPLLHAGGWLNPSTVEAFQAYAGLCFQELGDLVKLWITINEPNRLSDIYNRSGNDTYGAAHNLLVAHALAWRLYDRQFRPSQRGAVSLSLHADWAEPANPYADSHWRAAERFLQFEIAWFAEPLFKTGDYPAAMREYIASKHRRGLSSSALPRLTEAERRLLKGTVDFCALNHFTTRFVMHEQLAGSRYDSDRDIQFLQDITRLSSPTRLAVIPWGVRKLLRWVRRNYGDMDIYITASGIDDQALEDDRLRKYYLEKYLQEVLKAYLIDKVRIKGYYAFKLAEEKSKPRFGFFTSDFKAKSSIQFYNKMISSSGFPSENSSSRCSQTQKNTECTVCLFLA
Procedure: (§1) Species cross reactivity of the disclosed anti-KLB antibodies were analyzed by FACS analysis using KLB cDNA from mouse, rat, rabbit, cynomolgus monkey and rhesus monkey cloned into pRK mammalian expression vectors transiently transfected into HEK293T cells. The KLB extracellular domain polypeptide sequences that were expressed are as follows: […]

mouse KLB = target: T2, mouse KLB (mouse, UniProt Q99N32 53-990)
T2 construct: expressed from KLB cDNA on HEK293T cells and read by FACS; also called msKLB
T2 sequence: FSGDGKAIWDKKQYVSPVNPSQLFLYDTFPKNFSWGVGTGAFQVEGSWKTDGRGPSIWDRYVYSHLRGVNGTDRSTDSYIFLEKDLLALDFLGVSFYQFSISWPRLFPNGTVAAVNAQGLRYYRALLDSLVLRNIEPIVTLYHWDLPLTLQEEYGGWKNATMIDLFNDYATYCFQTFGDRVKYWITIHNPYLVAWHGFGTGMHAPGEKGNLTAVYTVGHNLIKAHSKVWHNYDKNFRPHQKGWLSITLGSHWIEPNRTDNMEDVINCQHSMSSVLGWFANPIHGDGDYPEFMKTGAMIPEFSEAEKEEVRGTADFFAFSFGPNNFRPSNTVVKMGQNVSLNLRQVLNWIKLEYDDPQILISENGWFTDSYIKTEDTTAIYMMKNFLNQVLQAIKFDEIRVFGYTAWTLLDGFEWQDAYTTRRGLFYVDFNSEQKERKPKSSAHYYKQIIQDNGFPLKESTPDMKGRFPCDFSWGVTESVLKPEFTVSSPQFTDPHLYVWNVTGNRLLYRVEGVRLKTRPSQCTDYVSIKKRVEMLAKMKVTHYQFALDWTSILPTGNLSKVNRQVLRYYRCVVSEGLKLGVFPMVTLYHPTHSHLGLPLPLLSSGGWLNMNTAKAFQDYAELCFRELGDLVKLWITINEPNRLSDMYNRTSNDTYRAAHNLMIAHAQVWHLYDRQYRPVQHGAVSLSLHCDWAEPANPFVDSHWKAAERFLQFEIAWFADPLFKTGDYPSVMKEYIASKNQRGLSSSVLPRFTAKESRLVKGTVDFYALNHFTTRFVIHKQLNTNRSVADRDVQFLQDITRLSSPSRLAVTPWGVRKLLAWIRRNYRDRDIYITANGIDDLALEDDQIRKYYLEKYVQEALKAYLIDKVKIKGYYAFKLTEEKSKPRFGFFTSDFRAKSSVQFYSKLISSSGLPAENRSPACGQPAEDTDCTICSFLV
Procedure: as §1

rabbit KLB (+N-ter FLAG) = target: T3, rabbit KLB (+N-ter FLAG) (rabbit)
T3 construct: expressed from KLB cDNA on HEK293T cells and read by FACS
T3 chain: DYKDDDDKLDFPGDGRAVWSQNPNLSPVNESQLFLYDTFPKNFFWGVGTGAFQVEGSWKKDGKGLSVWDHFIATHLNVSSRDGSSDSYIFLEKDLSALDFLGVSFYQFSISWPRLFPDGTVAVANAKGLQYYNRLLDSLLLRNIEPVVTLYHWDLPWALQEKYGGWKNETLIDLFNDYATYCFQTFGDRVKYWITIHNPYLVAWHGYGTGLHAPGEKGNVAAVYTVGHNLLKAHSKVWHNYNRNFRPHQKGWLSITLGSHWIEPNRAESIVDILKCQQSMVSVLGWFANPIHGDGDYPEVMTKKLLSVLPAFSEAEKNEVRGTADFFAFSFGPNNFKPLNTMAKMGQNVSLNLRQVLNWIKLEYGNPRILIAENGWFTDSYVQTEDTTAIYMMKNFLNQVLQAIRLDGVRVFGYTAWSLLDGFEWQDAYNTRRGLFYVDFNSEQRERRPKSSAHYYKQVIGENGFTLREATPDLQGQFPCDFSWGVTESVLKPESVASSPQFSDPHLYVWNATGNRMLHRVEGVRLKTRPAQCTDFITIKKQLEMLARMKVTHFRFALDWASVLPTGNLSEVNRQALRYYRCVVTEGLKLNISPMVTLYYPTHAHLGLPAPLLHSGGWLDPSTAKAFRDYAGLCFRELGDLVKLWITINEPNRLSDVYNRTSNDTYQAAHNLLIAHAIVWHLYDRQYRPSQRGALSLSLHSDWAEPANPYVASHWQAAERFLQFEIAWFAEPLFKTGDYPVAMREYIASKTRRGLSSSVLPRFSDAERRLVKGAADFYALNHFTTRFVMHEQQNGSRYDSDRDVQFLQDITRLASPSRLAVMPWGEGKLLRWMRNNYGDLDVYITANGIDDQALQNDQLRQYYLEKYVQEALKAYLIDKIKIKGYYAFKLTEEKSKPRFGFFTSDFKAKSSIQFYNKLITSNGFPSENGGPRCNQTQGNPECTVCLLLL
Procedure: as §1

Binder | binding result [1] | binding result (mouse KLB) | binding result (rabbit KLB (+N-ter FLAG))
B1 | binds | no binding | binds
B2 | binds | no binding | binds
B3 | binds | no binding | binds
B4 | binds | binds | binds
B5 | binds | no binding | no binding
B6 | no binding | no binding | binds
